Measured values as given in patent US20140178899.

T1: mutant BH3 peptide (aa 108-127) in which Thr119 was substituted to alanine (T119A)
T1 chain: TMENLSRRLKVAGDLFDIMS

T2: peptide corresponding to Beclin's BH3 domain (aa 108-127)
T2 chain: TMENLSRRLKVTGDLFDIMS


What was measured:
[1] = target: Flag-tagged Beclin-1 (wild type)
[2] = target: GST protein (GST alone) [GST: P08515]
[3] = target: GST-Beclin-1 fusion protein (wild type, bacterially purified, not phosphorylated)
[4] = target: T1, mutant BH3 peptide (aa 108-127) in …
[5] = target: T2, peptide corresponding to Beclin's BH3 …

GST-Beclin-1 fusion protein (wild type, bacterially purified, not phosphorylated), sequence (chain, as listed by the source): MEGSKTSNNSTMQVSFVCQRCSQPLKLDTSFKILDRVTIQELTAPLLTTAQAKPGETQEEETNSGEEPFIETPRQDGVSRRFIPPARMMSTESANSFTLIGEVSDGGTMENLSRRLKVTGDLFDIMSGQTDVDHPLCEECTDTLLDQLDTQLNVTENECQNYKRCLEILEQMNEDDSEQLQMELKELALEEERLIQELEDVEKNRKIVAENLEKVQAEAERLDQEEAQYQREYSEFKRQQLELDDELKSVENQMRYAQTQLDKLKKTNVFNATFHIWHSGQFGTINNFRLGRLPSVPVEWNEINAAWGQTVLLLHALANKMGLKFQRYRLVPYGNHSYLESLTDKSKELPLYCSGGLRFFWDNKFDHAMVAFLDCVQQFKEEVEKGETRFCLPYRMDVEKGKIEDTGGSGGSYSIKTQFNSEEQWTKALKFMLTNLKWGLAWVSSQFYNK
Flag-tagged Beclin-1 (wild type), sequence (chain, as listed by the source): as above
GST protein (GST alone) [GST: P08515], sequence (P08515 whole entry, the tested form may be a part): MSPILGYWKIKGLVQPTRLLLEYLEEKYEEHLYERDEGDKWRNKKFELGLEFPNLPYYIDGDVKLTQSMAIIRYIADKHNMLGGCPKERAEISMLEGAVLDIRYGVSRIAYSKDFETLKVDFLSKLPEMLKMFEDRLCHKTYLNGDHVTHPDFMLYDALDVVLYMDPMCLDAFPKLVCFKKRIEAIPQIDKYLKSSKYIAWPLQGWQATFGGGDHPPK

Protein	in vitro kinase assay, 33P incorporation (X-ray film) [1]	in vitro kinase assay, 33P incorporation (X-ray film) [2]	in vitro kinase assay, 33P incorporation (X-ray film) [3]	phosphorylation site mapping by mass spectrometry [3]	peptide phosphorylation, filter assay counts [4]	peptide phosphorylation, filter assay counts against substrate concentration [5]
Flag-tagged DAPk (full length) (protein) MTVFRQENVDDYYDTGEELGSGQFAVVKKCREKSTGLQYAAKFIKKRRTKSSRRGVSREDIEREVSILKEIQHPNVITLHEVYENKTDVILILELVAGGELFDFLAEKESLTEEEATEFLKQILNGVYYLHSLQIAHFDLKPENIMLLDRNVPKPRIKIIDFGLAHKIDFGNEFKNIFGTPEFVAPEIVNYEPLGLEADMWSIGVITYILLSGASPFLGDTKQETLANVSAVNYEFEDEYFSNTSALAKDFIRRLLVKDPKKRMTIQDSLQHPWIKPKDTQQALSRKASAVNMEKFKKFAARKKWKQSVRLISLCQRLSRSFLSRSNMSVARSDDTLDEEDSFVMKAIIHAINDDNVPGLQHLLGSLSNYDVNQPNKHGTPPLLIAAGCGNIQILQLLIKRGSRIDVQDKGGSNAVYWAARHGHVDTLKFLSENKCPLDVKDKSGEMALHVAARYGHADVAQLLCSFGSNPNIQDKEEETPLHCAAWHGYYSVAKALCEAGCNVNIKNREGETPLLTASARGYHDIVECLAEHGADLNACDKDGHIALHLAVRRCQMEVIKTLLSQGCFVDYQDRHGNTPLHVACKDGNMPIVVALCEANCNLDISNKYGRTPLHLAANNGILDVVRYLCLMGASVEALTTDGKTAEDLARSEQHEHVAGLLARLRKDTHRGLFIQQLRPTQNLQPRIKLKLFGHSGSGKTTLVESLKCGLLRSFFRRRRPRLSSTNSSRFPPSPLASKPTVSVSINNLYPGCENVSVRSRSMMFEPGLTKGMLEVFVAPTHHPHCSADDQSTKAIDIQNAYLNGVGDFSVWEFSGNPVYFCCYDYFAANDPTSIHVVVFSLEEPYEIQLNQVIFWLSFLKSLVPVEEPIAFGGKLKNPLQVVLVATHADIMNVPRPAGGEFGYDKDTSLLKEIRNRFGNDLHISNKLFVLDAGASGSKDMKVLRNHLQEIRSQIVSVCPPMTHLCEKIISTLPSWRKLNGPNQLMSLQQFVYDVQDQLNPLASEEDLRRIAQQLHSTGEINIMQSETVQDVLLLDPRWLCTNVLGKLLSVETPRALHHYRGRYTVEDIQRLVPDSDVEELLQILDAMDICARDLSSGTMVDVPALIKTDNLHRSWADEEDEVMVYGGVRIVPVEHLTPFPCGIFHKVQVNLCRWIHQQSTEGDADIRLWVNGCKLANRGAELLVLLVNHGQGIEVQVRGLETEKIKCCLLLDSVCSTIENVMATTLPGLLTVKHYLSPQQLREHHEPVMIYQPRDFFRAQTLKETSLTNTMGGYKESFSSIMCFGCHDVYSQASLGMDIHASDLNLLTRRKLSRLLDPPDPLGKDWCLLAMNLGLPDLVAKYNTSNGAPKDFLPSPLHALLREWTTYPESTVGTLMSKLRELGRRDAADFLLKASSVFKINLDGNGQEAYASSCNSGTSYNSISSVVSR	The phosphorylation by Flag-tagged (60 ng) DAPk was also observed when Flag-tagged Beclin-1 (250 ng), immunoprecipitated from HEK293T cells, was used as a substrate	GST-Beclin-1, but not GST alone, was phosphorylated by DAPk	GST-Beclin-1, but not GST alone, was phosphorylated by DAPk	two phosphorylation sites were identified with good accuracy ... a phosphorylation on S104 or T108, and the second was identified as Thr119		
DAPk's catalytic domain (DK1), bacterially purified (protein) MTVFRQENVDDYYDTGEELGSGQFAVVKKCREKSTGLQYAAKFIKKRRTKSSRRGVSREDIEREVSILKEIQHPNVITLHEVYENKTDVILILELVAGGELFDFLAEKESLTEEEATEFLKQILNGVYYLHSLQIAHFDLKPENIMLLDRNVPKPRIKIIDFGLAHKIDFGNEFKNIFGTPEFVAPEIVNYEPLGLEADMWSIGVITYILLSGASPFLGDTKQETLANVSAVNYEFEDEYFSNTSALAKDFIRRLLVKDPKKRMTIQDSLQHPWIKPKDTQQALS					Changing Thr119 to alanine strongly inhibited the extent of peptide phosphorylation	DAPk phosphorylates Beclin's BH3 peptide in a dose-dependent manner
